This note sets out measurements from publication PMC9839372 (2023).

First the molecules themselves.
B1: GFP-tagged PRR14 (1-212) wild-type fragment [human] / Heterochromatin Protein 1 gamma (HP1γ) [human (endogenous in Lenti-X 293T)] (parent complex)
chain 1: MDLPGDSSPPGQPRLCRQPLTRALWGARSPKRPRLQLPGAPSPLEKASRRVLAVVLEDVMAVHMVPVVPSKQTSIPQHHSYHQDPVHRQPPASPPRQAGWSSQARPPDPLCLCREPLSRIHRTSSTLRRRSRTTPGPEEGPSQKVDRAPQPTLVVMLEDIASPRPPAEGFIDETPNFIIPAQRAEPMRIVRQPTPPPGDLEPPFQPSALPAD
chain 2: not shown
B2: GFP-tagged PRR14 (1-212) wild-type fragment [human] / Heterochromatin Protein 1 beta (HP1β) [human (endogenous in Lenti-X 293T)] (parent complex)
chain 1: B1 chain 1
chain 2: not shown

The variants in one experiment derive from B1. Briefly: co-immunoprecipitation (anti-GFP IP) with Western blot, band intensity quantified; lysates of 293T cells expressing GFP-PRR14 (1-212) constructs; n = 3 independent immunoprecipitations; parent: 95; read off a plot. (In general: In western blotting, separated proteins are transferred to a membrane and probed.)
Turning to chain 1 V54E, chain 1 V55E, chain 1 V154E, chain 1 V155E, the response is roughly 6.

In the case of chain 1 V154E, chain 1 V155E, the response is roughly 95.

For the variant chain 1 V54E, chain 1 V55E, the response is roughly 17.

The next experiment covers variants of B2. In words: co-immunoprecipitation (anti-GFP IP) with Western blot, band intensity quantified; lysates of 293T cells expressing GFP-PRR14 (1-212) constructs; n = 3 independent immunoprecipitations; parent: 91; read off a plot.
Consider chain 1 V54E, chain 1 V55E, chain 1 V154E, chain 1 V155E, for which the response was roughly 43.

On to chain 1 V154E, chain 1 V155E, for which the response is roughly 91.

Consider chain 1 V54E, chain 1 V55E, for which the response is roughly 35.
